In paper doi:10.1101/438903:

Target: DY-547P1 labelled NDC80-C Bonsai (ΔHec1 1-80)
Assay: MST

B1: MPS1^WT (1xNTE, residues 1-808), recombinant from insect cells (enzyme)
chain: MESEDLSGRELTIDSIMNKVRDIKNKFKNEDLTDELSLNKISADTTDNSGTVNQIMMMANNPEDWLSLLLKLEKNSVPLSDALLNKLIGRYSQAIEALPPDKYGQNESFARIQVRFAELKAIQEPDDARDYFQMARANCKKFAFVHISFAQFELSQGNVKKSKQLLQKAVERGAVPLEMLEIALRNLNLQKKQLLSEEEKKNLSASTVLTAQESFSGSLGHLQNRNNSCDSRGQTTKARFLYGENMPPQDAEIGYRNSLRQTNKTKQSCPFGRVPVNLLNSPDCDVKTDDSVVPCFMKRQTSRSECRDLVVPGSKPSGNDSCELRNLKSVQNSHFKEPLVSDEKSSELIITDSITLKNKTESSLLAKLEETKEYQEPEVPESNQKQWQSKRKSECINQNPAASSNHWQIPELARKVNTEQKHTTFEQPVFSVSKQSPPISTSKWFDPKSICKTPSSNTLDDYMSCFRTPVVKNDFPPACQLSTPYGQPACFQQQQHQILATPLQNLQVLASSSANECISVKGRIYSILKQIGSGGSSKVFQVLNEKKQIYAIKYVNLEEADNQTLDSYRNEIAYLNKLQQHSDKIIRLYDYEITDQYIYMVMECGNIDLNSWLKKKKSIDPWERKSYWKNMLEAVHTIHQHGIVHSDLKPANFLIVDGMLKLIDFGIANQMQPDTTSVVKDSQVGTVNYMPPEAIKDMSSSRENGKSKSKISPKSDVWSLGCILYYMTYGKTPFQQIINQISKLHAIIDPNHEIEFPDIPEKDLQDVLKCCLKRDPKQRISIPELLAHPYVQIQTHPVNQMAKGTTEE
Kd: 300 nM
